Data reported in US12325865B2, “Methods for increasing efficiency of gene editing in cells” (President and Fellows of Harvard College, priority 2017, dated 2025).

System: PFFF3 cells
Experiment: Treatment of Cas9/gRNA-modified PFFF3 cells during multiplex PERV pol genetic modification
Format: cell-based, porcine
Settings: FIG. 2
Protocol: Stable expression of Cas9 and the three sgRNAs was achieved by integrating a piggyBac transposon carrying these elements into the PFFF3 genome. The PFFF3 cell line was established expressing a Piggybac-Cas9/3gRNAs construct. Cas9 and […] were carried in the same vector. Cas9 expression was induced by addition of doxycycline.
Methods described herein where cells are treated with PFTα and/or bFGF mitigate the stress from multiplex DNA damage and support clonal expansion of 100% PERV-free cells. Such DNA damage decreases targeting efficiency of the PFFF3 population over time and results in the inability to obtain 100% PERV-free PFFF3 clonal cell lines. Methods described herein are directed to inhibiting senescence and/or apoptosis pathways with small-molecule drugs so as to increase the targeting efficiency of the PFFF3 population and enhance viability of the highly edited clones. […] (See FIG. 1). […] (See FIG. 2). […] The distribution of the targeting efficiencies of single cell clones treated with PFTα and bFGF was approximately bimodal, and 100% PERV-free PFFF3 clonal cell lines were isolated. The eradication of pol activity was validated by RNA-seq with confirmation that all pol transcripts had been mutated.

B1: SV40 large T antigen: SV40 large T antigen, treatment also increasing targeting efficiency (protein, UniProt P03070 1-708, looked up)
Large T antigen: MDKVLNREESLQLMDLLGLERSAWGNIPLMRKAYLKKCKEFHPDKGGDEEKMKKMNTLYKKMEDGVKYAHQPDFGGFWDATEIPTYGTDEWEQWWNAFNEENLFCSEEMPSSDDEATADSQHSTPPKKKRKVEDPKDFPSELLSFLSHAVFSNRTLACFAIYTTKEKAALLYKKIMEKYSVTFISRHNSYNHNILFFLTPHRHRVSAINNYAQKLCTFSFLICKGVNKEYLMYSALTRDPFSVIEESLPGGLKEHDFNPEEAEETKQVSWKLVTEYAMETKCDDVLLLLGMYLEFQYSFEMCLKCIKKEQPSHYKYHEKHYANAAIFADSKNQKTICQQAVDTVLAKKRVDSLQLTREQMLTNRFNDLLDRMDIMFGSTGSADIEEWMAGVAWLHCLLPKMDSVVYDFLKCMVYNIPKKRYWLFKGPIDSGKTTLAAALLELCGGKALNVNLPLDRLNFELGVAIDQFLVVFEDVKGTGGESRDLPSGQGINNLDNLRDYLDGSVKVNLEKKHLNKRTQIFPPGIVTMNEYSVPKTLQARFVKQIDFRPKDYLKHCLERSEFLLEKRIIQSGIALLLMLIWYRPVAEFAQSIQSRIVEWKERLDKEFSLSVYQKMKFNVAMGIGVLDWLRNSDDDDEDSQENADKNEDGGEKNMEDSGHETGIDSQSQGSFQAPQSSQSVHDHNQPYHICRGFTCFKKPPTPPPEPET
average targeting efficiency of the resulting PFFF3 population: increased average targeting efficiency
